Experimental data from the PETadex activity labels (doi:10.1016/j.ijbiomac.2025.149745).
Positions count from the first letter of the chain named.

B1: unnamed (protein)
chain: MDGVLWRVRTAALMAALLALAAWALWASPSVEAQSNPYQRGPNPTRSALTADGPFSVATYTVSRLSVSGFGGVIYYPTGTSLTFGGIAMSPGYTADASSLAWLGRRLASHGFVVLVINTNSRFDYPDSRASQLSAALNYLRTSSPSAVRARLDANRLAVAGHSMGGGGTLRIAEQNPSLKAAVPLTPWHTDKTFNTSVPVLIVGCEADTVAPVSQHAIPFYQNLPSTTPKVYVELDNASHFCPNSNNAAISVYTISWMKLWVDNDTRYRQFLCNVNDPALSDFRTNNRHCQCQ
B2: unnamed (protein)
chain: B1 chain with H162W, C205A, F241S, C242A
B3: unnamed (protein)
chain: B1 chain with F241S
B4: unnamed (protein)
chain: B1 chain with H162W, C205A, C242A
B5: unnamed (protein)
chain: B1 chain with C205A, C242A
B6: unnamed (protein)
chain: B1 chain with C205A, F241S, C242A
B7: unnamed (protein)
chain: B1 chain with H162W, F241S
B8: unnamed (protein)
chain: MNFPRASRLMQAAVLGGLMAVSAAATAQTNPYARGPNPTAASLEASAGPFTVRSFTVSRPSGYGAGTVYYPTNAGGTVGAIAIVPGYTARQSSIKWWGPRLASHGFVVITIDTNSTLDQPSSRSSQQMAALRQVASLNGTSSSPIYGKVDTARMGVMGHSMGGGGSLISAANNPSLKAAAPQAPWDSSTNFSSVTVPTLIFAAENDSIAPVNSSALPIYDSMSRNAKQFLEINGGSHFAANSGNSNQALIGKKGVAWMKRFMDNDTRYSTFACENPNSTRVSDFRTANCS
B9: unnamed (protein)
chain: B8 chain with A203C, A239C
B10: unnamed (protein)
chain: B8 chain with H159W, A203C, A239C
B11: unnamed (protein)
chain: B8 chain with A203C, F238S, A239C
B12: unnamed (protein)
chain: B8 chain with H159W, F238S
B13: unnamed (protein)
chain: B8 chain with H159W, A203C, F238S, A239C

Substrate: PEF
Experiment: Proxy for plastic degradation [kcat] (s⁻¹)
Settings: pH 9

Protein | Proxy for plastic degradation
B1 | 0.004
B2 | 0.0175
B3 | 0.115
B4 | 0.033
B5 | 0.005
B6 | 0.085
B7 | 0.006
B8 | 0
B10 | 0.35
B11 | 0.17
B12 | 0

Substrate: PET
Experiment: Proxy for plastic degradation [kcat] (s⁻¹)
Settings: pH 9

Protein | Proxy for plastic degradation
B1 | 0.0031
B2 | 0.018
B3 | 0.03
B4 | 0.003
B5 | 0.01
B6 | 0.035
B7 | 0.0045
B8 | 0
B10 | 0.035
B11 | 0.03
B12 | 0

Substrate: not listed separately
Experiment: Proxy for plastic degradation [melting temperature]
Settings: pH 7

Protein | Proxy for plastic degradation
B1 | 82 °C
B2 | 84.5 °C
B3 | 83 °C
B4 | 84.9 °C
B5 | 85 °C
B6 | 85 °C
B7 | 82.5 °C
B8 | 39.5 °C
B10 | 48.5 °C
B11 | 48 °C
B12 | 40.4 °C

Substrate: pNPB
Experiment: Proxy for plastic degradation [kcat/Km (catalytic efficiency)] (mM⁻¹s⁻¹)
Settings: pH 7

Protein | Proxy for plastic degradation
B1 | 335
B2 | 28
B3 | 125
B4 | 67
B5 | 398
B6 | 175
B7 | 2.8
B8 | 2.1
B10 | 3.3
B11 | 45.8
B12 | 0

Substrate: pNPB
Experiment: Proxy for plastic degradation [PET preference ratio] (% relative activity)
Settings: pH 7

Protein | Proxy for plastic degradation
B3 | 0
B8 | 0
B12 | 0

Substrate: PEF
Experiment: Proxy for plastic degradation [Released monomer concentration (HPLC/LC-MS) (FDCA + MHEF)] (s⁻¹)
Settings: pH 9

Protein | Proxy for plastic degradation
B8 | 0
B10 | 0.35
B11 | 0.2
B12 | 0

Substrate: PET
Experiment: Proxy for plastic degradation [Released monomer concentration (HPLC/LC-MS) (TPA+MHET+BHET)] (s⁻¹)
Settings: pH 9

Protein | Proxy for plastic degradation
B8 | 0
B10 | 0.037
B11 | 0.03
B12 | 0

Substrate: PEF
Experiment: Proxy for plastic degradation [kcat] (s⁻¹)
Settings: pH 9; part of the chain shown

Protein | Proxy for plastic degradation
B9 | 0.08
B13 | 1.02

Substrate: PET
Experiment: Proxy for plastic degradation [kcat] (s⁻¹)
Settings: pH 9; part of the chain shown

Protein | Proxy for plastic degradation
B9 | 0.013
B13 | 0.09

Substrate: not listed separately
Experiment: Proxy for plastic degradation [melting temperature]
Settings: pH 7; part of the chain shown

Protein | Proxy for plastic degradation
B9 | 47.9 °C

Substrate: pNPB
Experiment: Proxy for plastic degradation [kcat/Km (catalytic efficiency)] (mM⁻¹s⁻¹)
Settings: pH 7; part of the chain shown

Protein | Proxy for plastic degradation
B9 | 22.8
B13 | 8.7

Substrate: PEF
Experiment: Proxy for plastic degradation [Released monomer concentration (HPLC/LC-MS) (FDCA + MHEF)] (s⁻¹)
Settings: pH 9; part of the chain shown

Protein | Proxy for plastic degradation
B9 | 0.11
B13 | 1

Substrate: PET
Experiment: Proxy for plastic degradation [Released monomer concentration (HPLC/LC-MS) (TPA+MHET+BHET)] (s⁻¹)
Settings: pH 9; part of the chain shown

Protein | Proxy for plastic degradation
B9 | 0.012
B13 | 0.075
